Assay results as given in the supplement of paper PMC9732359.
± gives the uncertainty stated by the source.

Test: protein stability index of a GFP-peptide fusion (yeast GPS) (PSI 1-4); higher = more stable; sorted into four equal gates, so the index is relative within each strain
Outline: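 The protein stability index of a peptide was calculated by multiplying its read frequency in each gate by that gate's number and adding the products. The peptides were tiled 17-residue stretches of yeast proteins, fused downstream of GFP on a Cherry-expressing plasmid and carried in yeast as a pooled library. Mid-log cultures in leucine-free medium were sorted into four equal gates by GFP/Cherry ratio, and each gate's plasmids were PCR-amplified and Illumina-sequenced.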

Row | Sequence | protein stability index (doa10∆) | protein stability index (pdr5∆) | protein stability index (san1∆) | protein stability index (ubr1∆)
1 | RLGSKKLVEIIWNDVVY [YJL039C/NUP192] | 3.4 ± 0.17 | 3.43 ± 0.12 | 3.46 ± 0.082 | 3.35 ± 0.08
2 | IESIRSCKDSQLKWAQN [YIL149C/MLP2] | 2.78 ± 0.064 | 3.01 ± 0.069 | 2.75 ± 0.053 | 2.95 ± 0.053
3 | KEDEPVVARRSNSANVS [ITC1] | 3.07 ± 0.064 | 3.06 ± 0.068 | 2.57 ± 0.048 | 2.4 ± 0.05
4 | GTGKTMLVKAVANSTKA [RPT3] | 2.64 ± 0.19 | 1.47 ± 0.1 | 2.02 ± 0.096 | 1.31 ± 0.13
5 | LNRIKKYLLTQRVFKPV [PRP8] | 2.22 ± 0.075 | 2.25 ± 0.072 | 2.33 ± 0.096 | 2.48 ± 0.069
6 | YVYRASKEVRGSKIRVM [RPL33A] | 2.75 ± 0.063 | 2.81 ± 0.086 | 2.5 ± 0.064 | 2.88 ± 0.049
7 | LPTTVVSNPGDNPPPAD [MED2] | 3.02 ± 0.046 | 2.95 ± 0.052 | 3.04 ± 0.051 | 3.11 ± 0.037
8 | IALEGYRLDIIESALKS [RPN2] | – | 1.49 ± 0.15 | – | 1.25 ± 0.15
9 | KGPRFRKLTSQEINDRL [PRE8] | 3.09 ± 0.098 | 3.19 ± 0.11 | 3.06 ± 0.18 | 3.58 ± 0.093
10 | MNRPGARVTRRKRCKGT [RPL11A] | 3.05 ± 0.21 | 3.25 ± 0.13 | 3.46 ± 0.081 | 3.15 ± 0.13
11 | EVALFSQKAKLMTFNAE [YLR335W/NUP2] | 2.27 ± 0.08 | 1.47 ± 0.057 | 1.5 ± 0.1 | 1.4 ± 0.085
12 | LLPLVVSNISCLTGTVA [ECM29] | 1.25 ± 0.041 | 1.38 ± 0.034 | 1.38 ± 0.094 | 1.45 ± 0.037
13 | VPTIGVVNSNFAKEHNA [YJR042W/NUP85] | 2.51 ± 0.072 | 2.61 ± 0.075 | 2.59 ± 0.058 | 2.54 ± 0.034
14 | EGAEPGPPYTTDEHLIF [ISW2] | 2.91 ± 0.043 | 2.99 ± 0.047 | 2.42 ± 0.043 | 2.68 ± 0.037
15 | YSKIKHLGLDDPQDVFN [SIR2] | 2.77 ± 0.18 | 3.22 ± 0.19 | 3.3 ± 0.14 | 3.24 ± 0.096
16 | VTNALDNIDEKVVKAIR [NUT1] | 3.04 ± 0.16 | 2.37 ± 0.14 | 3.07 ± 0.083 | 1.61 ± 0.048
17 | LQMYSKIRRHPNIMLIF [FAS1] | 1.72 ± 0.039 | 2.01 ± 0.042 | 1.97 ± 0.08 | 1.91 ± 0.034
18 | GDYGEEEDADQEESFSL [SRB8] | 3.76 ± 0.28 | 3.63 ± 0.17 | – | –
19 | LPTVGFDFIKDNETPSK [YOR098C/NUP1] | 3.15 ± 0.093 | 3.2 ± 0.056 | 3.08 ± 0.068 | 3.27 ± 0.053
20 | QIEKKKICRGRMNTIIT [SIR4] | 3.52 ± 0.17 | 3.43 ± 0.14 | 3.52 ± 0.24 | 2.63 ± 0.27
21 | FLQHPDEEYPVKVKVSY [PRP8] | 3.24 ± 0.083 | 3.18 ± 0.11 | 3.21 ± 0.082 | 2.63 ± 0.063
22 | QFISSRQFEVKQLQLAM [POP1] | 2.24 ± 0.051 | 2.45 ± 0.051 | 2.1 ± 0.067 | 1.74 ± 0.037
23 | IDQVNELVTISWVQPRI [RPN9] | 3.33 ± 0.069 | 3.28 ± 0.069 | 3.22 ± 0.045 | 3.15 ± 0.067
24 | TFGKPEEEDSILSLEQS [YCS4] | 3.19 ± 0.091 | 3.19 ± 0.074 | 3.14 ± 0.057 | 3.13 ± 0.095
25 | LREEIFIANEGVHTGQF [RPL2A] | 2.8 ± 0.084 | 2.84 ± 0.074 | 2.92 ± 0.06 | 3.03 ± 0.059
26 | VPLSDNAIIEANLGKYG [RPL7A] | 2.29 ± 0.073 | 2.25 ± 0.074 | 2.45 ± 0.074 | 2.28 ± 0.075
27 | GKSEKLSLLLVEDKIPL [SKI6] | 2.45 ± 0.11 | 2.79 ± 0.095 | 3.23 ± 0.056 | 3.27 ± 0.12

Row | Sequence | protein stability index (doa10∆) | protein stability index (pdr5∆) | protein stability index (san1∆) | protein stability index (ubr1∆)
28 | DLPETGFFENIETEFLL [IRR1] | 3.13 ± 0.075 | 3.18 ± 0.1 | 3.22 ± 0.047 | 3.13 ± 0.066
29 | VEISLVNGAKNLVVSGP [FAS1] | 2.76 ± 0.15 | 2.6 ± 0.1 | 2.3 ± 0.1 | 2.51 ± 0.21
30 | QHIYPSSTPGVANYSAM [GAL11] | 2.85 ± 0.11 | 2.7 ± 0.12 | 3.01 ± 0.11 | 2.81 ± 0.14
31 | IEDVTPVPSDSTRKKGG [RPS14B] | 2.99 ± 0.039 | 3.15 ± 0.045 | 2.96 ± 0.051 | 3.03 ± 0.04
32 | PSLLLQKDQDGRIPLHW [NAS6] | 3.28 ± 0.28 | 3.38 ± 0.21 | – | –
33 | QEDFEVVEEFTPVVLAT [RPS5] | 3.1 ± 0.091 | 2.45 ± 0.059 | 2.3 ± 0.046 | 2.31 ± 0.042
34 | AGKSLVSKSEPKFFLGE [QCR2] | 3.41 ± 0.09 | 3.31 ± 0.067 | 3.08 ± 0.054 | 3.32 ± 0.047
35 | IIKQTVHPIPDVAFADG [YMR129W/POM152] | 2.8 ± 0.053 | 2.89 ± 0.062 | 2.77 ± 0.046 | 2.82 ± 0.043
36 | MDVDSVKTTLVSLTQLR [RPC82] | 2.57 ± 0.1 | 1.81 ± 0.074 | 2.08 ± 0.12 | 1.5 ± 0.093
37 | NPYSSYVSQIRKHKRVS [YAR002W/NUP60] | 2.23 ± 0.081 | 1.88 ± 0.05 | 2.85 ± 0.049 | 2.38 ± 0.067
38 | YPDLCSIYDKWTDPNLK [RPN1] | 2.69 ± 0.091 | 2.66 ± 0.072 | 2.21 ± 0.11 | 2.93 ± 0.085
39 | GVTIEFSTNVKDEIVLS [RPL9A] | 3.09 ± 0.23 | 3.33 ± 0.13 | 3.3 ± 0.088 | 3.18 ± 0.065
40 | ISNKDVIFKIRDRTSGQ [SRB4] | 3.42 ± 0.11 | 3.02 ± 0.13 | 3.42 ± 0.077 | 3.14 ± 0.11
41 | ELTKNPNSNVELAGGNA [SMC1] | – | 3.01 ± 0.15 | 3.32 ± 0.086 | 3.37 ± 0.12
42 | VPFIIAAMVIMHLMALH [COB] | 2.08 ± 0.055 | 1.31 ± 0.055 | 1.79 ± 0.16 | 1.43 ± 0.041
43 | DAVLKIFSFHQDSIFQR [SRB8] | 3.12 ± 0.11 | 2.79 ± 0.12 | 3.04 ± 0.077 | 2.77 ± 0.057
44 | TNVLNFIKLQKIDIIEL [FAS1] | 2.35 ± 0.042 | 1.94 ± 0.043 | 1.91 ± 0.075 | 2.05 ± 0.044
45 | IRSVALNDSNVKSFKPH [RRP42] | 2.63 ± 0.083 | 3.23 ± 0.17 | 2.62 ± 0.23 | 2.98 ± 0.13
46 | LRKQYSAIDEEIEELID [SMC3] | – | 2.98 ± 0.2 | – | 3.26 ± 0.2
47 | VEIAYHKCDELITLFNK [RPO31] | 3.16 ± 0.19 | 3.01 ± 0.087 | 2.99 ± 0.078 | 2.96 ± 0.1
48 | SSQPLEPLSDTEEPDLA [DSN1] | 2.74 ± 0.062 | 2.69 ± 0.06 | 3.25 ± 0.037 | 2.36 ± 0.07
49 | NEKFEIELLSLDDDSIV [SRB4] | 2.58 ± 0.096 | 3.07 ± 0.093 | 2.72 ± 0.081 | 3.1 ± 0.1
50 | TFLESINGINWRFHTPQ [SIN4] | 2.4 ± 0.054 | 1.86 ± 0.048 | 1.93 ± 0.12 | 2.02 ± 0.043
51 | EIKLLEISCKQWEISNM [CSI1] | – | 3.44 ± 0.27 | – | 3.55 ± 0.23
52 | SNDRVNPLIELTPIQKK [ITC1] | 2.92 ± 0.2 | 1.99 ± 0.13 | 2.15 ± 0.27 | 2.65 ± 0.11
53 | GRICRPLIIVSDGQSRV [RET1] | 2.06 ± 0.045 | 2.11 ± 0.037 | 1.75 ± 0.059 | 2.16 ± 0.038
